Like-named read-outs stand apart in the source and are kept apart here.
Assays:
[1] = Turbidity assay of the transition temperature (Tt); type: physicochemical
Description: In order to apply ELP-based polypeptides for drug delivery, a suitable temperature transition must be attained. The drug-labeled ELP should undergo its phase transition between 39 and 42° C., a temperature range sufficiently above normal body temperature to prevent unwanted systemic aggregation, but not hot enough to cause extensive toxicity. Elastin-like polypeptide is ideally suited as a thermally targeted drug carrier because the transition temperature can be easily manipulated by varying the molecular weight or the amino acid composition of the guest residue X in the VPGXG (SEQ ID NO: 2) sequence using simple molecular biology techniques. The transition temperature of Tat-ELP-GFLG-DOX (SEQ ID NO: 3) was assessed by monitoring the turbidity of a solution of the polypeptide while heating in physiological buffer. […] The polypeptide is soluble and the solution is clear at physiological temperature (37° C.).
1.4. Characterization of the Transition Temperature. The temperature induced aggregation of the proteins was characterized by monitoring absorbance at 350 nm while increasing the temperature. For initial analysis of Dox-labeled ELPs, solutions containing 10 μM protein in PBS were heated or cooled at a constant rate of 1° C./min in a temperature-controlled multicell holder in a UV-visible spectrophotometer (Cary 100, Varian instruments). The analysis was repeated with Tat-ELP1-GFLG-Dox (SEQ ID NO: 3) at concentrations ranging from 1 μM to 30 μM in cell culture media in order to determine the concentration dependence of the phase transition under experimental conditions. Absorbance data was converted to percentage of the maximal absorbance for each curve, and the Tt was defined as the temperature at which the OD350 reached 50% of the maximum turbidity. The concentration dependence of the Tt was fit using a logarithmic equation.
3.2. Thermal Properties of the Dox Delivery Vector. […] The Tt of Tat-ELP-GFLG-Dox (SEQ ID NO: 3) was assessed by monitoring the turbidity of a 10 μM solution of the polypeptide while heating in PBS. […]

[2] = system: MES-SA uterine sarcoma cells; type: cell-based, human; conditions: for Inhibition of cell proliferation: 5 μM, counted after 72 h; for IC50: cells counted after 72 h, ± SEM
Description: MES-SA cells were treated for 1 h at 37 or 42° C. with 5 μM Tat-ELP-GFLG-DOX (SEQ ID NO: 3); ELP-GFLG-DOX (SEQ ID NO: 3), which lacks the Tat cell penetrating peptide; or Tat-ELP-GFLG (SEQ ID NO: 3), which is not labeled with DOX. After the 1 h treatment, cells were rinsed and fresh media was replaced for 72 h. Cells remaining after 72 h were collected by trypsinization and counted using a Coulter counter. […] Similarly, the control polypeptide which lacks the Tat sequence was not cytotoxic, likely because it cannot efficiently enter the cells.
1.8 Cytotoxicity Assay. Cells were plated and treated for 1 h at 37° C. and 42° C. as described above with Tat-ELP1-GFLG-Dox (SEQ ID NO: 3), Tat-ELP2-GFLG-Dox (SEQ ID NO: 3), or control polypeptides lacking the Tat sequence or unlabeled with Dox. Cells were rinsed and harvested 72 h after treatment by trypsinization, collected by centrifugation, and resuspended in isotonic buffer. Cell number was determined using a Coulter counter and expressed as a percentage of untreated cells.
1.10. Data Fitting and Statistical Analysis. The concentration dependence of the Tt was fit with a logarithmic equation using Microsoft Excel. Dose-response curves were fit using exponential or sigmoid equations as applicable using Microcal Origin in order to determine the 50% inhibitory concentration (IC50). […] The significance of the thermal targeting index was assessed by comparing the normothermia group with the hyperthermia group using a paired Student's t-test in Microsoft Excel. p values of less than 0.05 were considered statistically significant. Polypeptide uptake and caspase activation were analyzed for statistical differences using one-way ANOVA analyses with post-hoc Scheffe's tests for pair-wise comparisons of treatment groups. The statistical significance level was p<0.05.
3.5. Cytotoxicity of ELP-delivered Dox. The growth-inhibitory activity of Tat-ELP-GFLG-Dox (SEQ ID NO: 3) was evaluated in the MES-SA uterine sarcoma cell line. MES-SA cells were treated for 1 h at 37° C. or 42° C. with various concentrations of Tat-ELP-GFLG-Dox (SEQ ID NO: 3); ELP-GFLG-Dox (SEQ ID NO: 3), which lacks the Tat cell penetrating peptide, the Tat-ELP-GFLG (SEQ ID NO: 3) polypeptide without Dox; or free Dox. After the 1 h treatment, the cells were rinsed and fresh media was replaced for 72 h. Cells remaining after 72 h were rinsed, collected by trypsinization, and counted using a Coulter counter. […] The toxicity of the unlabeled Tat-ELP-GFLG (SEQ ID NO: 3) protein was negligible when treated below the Tt.

**Q.** For Tat-ELP1-GFLG-Dox, which “Transition temperature (Tt)” value ([1]; 10 μM in PBS, heated 1° C./min, midpoint of turbidity) is on record?
**A.** The value was 40 °C.

**Q.** And the “State of the solution at physiological temperature” value ([1]; 37° C.)?
**A.** The value was “soluble”.

**Q.** And the “State of the solution at hyperthermia temperature” value ([1]; 42° C.)?
**A.** Its value is “aggregated”.

**Q.** What about the Cytotoxicity in words [2] of the same substance?
**A.** The Cytotoxicity in words was “cytotoxic at 37° C., but high concentrations were needed”.

**Q.** And the “Enhancement of cytotoxicity (reduction of IC50) by hyperthermia” value [2]?
**A.** Its value is “twenty-fold”.

**Q.** And the “Inhibition of cell proliferation” value ([2]; 1 h at 37° C.)?
**A.** The value was “little toxicity”.

**Q.** What about the “Inhibition of cell proliferation” value ([2]; 1 h at 42° C.) of the same substance?
**A.** Its value is “complete inhibition of cell proliferation”.

**Q.** And the IC50 ([2]; 1 h treatment at 37° C., read-out: IC50 (37° C.))?
**A.** Its IC50 is 21.9 ± 8.2 µM.

**Q.** And the IC50 ([2]; 1 h treatment at 42° C., read-out: IC50 (42° C.))?
**A.** Its IC50 is 1.1 ± 0.1 µM.

From US8252740B2, “Thermally-targeted delivery of medicaments including doxorubicin” (The University of Mississippi Medical Center, priority 2006, dated 2012)
